Reference: US20240239876A1 (GRIFOLS DIAGNOSTIC SOLUTIONS, published 2024)

B1: anti-HIV-1 antibody #A (antibody, V domains shown)
VH: EVKLVESGGGLVKPGGSLQLSCVASGFTFSSYAMSWVRQTPEKGLEWVASITSGGNTYYPDSVKGRFTISRDNAGNILYLQMSSLRSEDTAMFYCAREVLSVPFAYWGQGTLVTVST
VL: DIQMTQTTSSLSASLGDRVTINCRASQDISNYLHWYQQKPDGTVKLLIYYTSRLHSGVPSRFSGSGSGTDYSLTISNLEKEDIATYFCQQGNSFPWTFGGGTKVEIKR
notes: recombinant, expressed in CHO cells; also called mAb A
B2: anti-HIV-1 antibody #B (antibody, V domains shown)
VH: EVQLVESGGGLVKPGGSLKLSCAASGFAFSSYDMSWVRQTPDKRLEWVAYITSGVGNLNYLDTVKGRFTISRDNAKNTLYLQMSSLRSEDTAMYFCLRPPSYFGSSYDAMDYWGRGTSVTVSS
VL: DIVLTQSPATLSVTPGDSVSLSCRASQSISDNLHWYRQKSHESPRLLIKYSSQSISGIPSRFSGSGSGTDFTLSINSVETEDFGMYFCQQSNSWPFTFGSGTNLELKR
notes: recombinant, expressed in CHO cells; also called mAb B
B3: anti-HIV-1 antibody #D (antibody, V domains shown)
VH: QIQLQQSGPELVKPGASVKVSCKASGYAFTSYQLYWVKQSHGKSLEWIGYIDPYNGGTGYNQKFKGKATLTVDKSSSTAYMHLNSLTSEDSAVYYCASPRWLPAGDYWGQGTSVTVSS
VL: DVVMTQTPLSLPVSLGDQASISCRSSQSLVNSDGNTFLQWLLQKPGQSPKLLIYKVSNRFSGVPDRFSGSGSGTDFTLRISRVEAEDLGVYFCSQSTHVPWTFGGGTKLEIKR
notes: recombinant, expressed in CHO cells; also called mAb D; monoclonal antibody D

These binders were tested against T1, HIV-1 p24 protein (HIV-1, UniProt P03349 135-365) (assay: BLI, antibody captured on anti-mouse Fc biosensors, 1:1 model).
T1 construct: also called HIV-1 p24 antigen; HIV-p24
Binder B1 has a Kd of 0.2 nM, a koff of 5.9e-05 s⁻¹ and a kon of 241000 M⁻¹ s⁻¹. In the case of B2, the Kd is reported as < 0.00024 nM, the koff is reported as < 1e-07 s⁻¹ and the kon is reported as 408000 M⁻¹ s⁻¹. B3 was tested, and the Kd was < 0.00052 nM, the koff was < 1e-07 s⁻¹ and the kon was 194000 M⁻¹ s⁻¹.

The binders below were run against T1, HIV-1 p24 protein (assay: indirect ELISA on HIV-1 p24, OD 405 nm, antibody titrated 1:10 from 2 µg/mL (no unit beside the EC50; taken from the x axis, p24 Antibody [ng/mL])).
B1 was tested, and the EC50 was 3.6 ng/mL. Work on B2 yielded an EC50 of 76.7 ng/mL. B3 showed an EC50 of 8.41 ng/mL.
